Measured values taken from paper PMC8179133, “PilB from Streptococcus sanguinis is a bimodular type IV pilin with a direct role in adhesion” (Proceedings of the National Academy of Sciences of the …, 2021).

B1: PilBvWA (domain or fragment)
chain: QGQMNIAVSFVFDTSGSMDWDLQGRNVKKTGNESRMDILRKKSVIMIKDLAEIGNISVNLVGFSTSAKYIQQNFSNLDNGTNTIIATITKRENLNPDGVTNPGDGLRYGMISLQSQPAQLKYIVLLTDGIPNAYLVDSRALYAGNRVDLSQGAGRVTFNNPIYDLSPTLGYEYSRLGYDLYSRDSITRENSIAYAGEVSKKFGLGIKRVNVIGFSGVNHEIAYGQSLTDRIGEGGMETKYVSATNEEALQKTFSDIKKQIQQDLWFVSGP
notes: PilB of Streptococcus sanguinis 2908, residues 192-461: only the von Willebrand factor A-like (vWA) module; expressed from pET28-pilB192-461; also called vWA module of PilB; PilB 192-461; source: E. coli BL21(DE3), purified; not shown: 6His, N-terminal, kept
B2: 6His-PilB_(36-461) (domain or fragment)
chain: SSRELIEREASIQAEMRTSMQYVDRTVGKATSIFILDDSKFKGSKQGLTREWSYIGLSADGKKVMNYVWNKQKQDWDVSELGTKSLYNMKLDLEFKTEGAYQDNRLISYNLTGKYPDTNNKLGIDTAISALNTKQVFSKVAKGKKGIAIAYRTDPIQGQMNIAVSFVFDTSGSMDWDLQGRNVKKTGNESRMDILRKKSVIMIKDLAEIGNISVNLVGFSTSAKYIQQNFSNLDNGTNTIIATITKRENLNPDGVTNPGDGLRYGMISLQSQPAQLKYIVLLTDGIPNAYLVDSRALYAGNRVDLSQGAGRVTFNNPIYDLSPTLGYEYSRLGYDLYSRDSITRENSIAYAGEVSKKFGLGIKRVNVIGFSGVNHEIAYGQSLTDRIGEGGMETKYVSATNEEALQKTFSDIKKQIQQDLWFVSGP
notes: pilin module, short loop and vWA module; 48.4 kDa; synthetic gene codon optimized for E. coli; The 6His tag is noncleavable; also called native PilB; soluble portion of PilB; not shown: 6His, N-terminal, kept

What was measured:
[1] = molecular target: fibronectin from human plasma (human); experiment: ELISA; putative ligands (5 µg/mL in carbonate-bicarbonate buffer, 50 µL) adsorbed on MaxiSorp plates O/N at 4 °C; blocked 1 h with 3% BSA or 1% gelatin in PBS; serial twofold dilutions of 6His-PilB (40 to 0.625 µg/mL) for 2 h at 37 °C; detected with anti-6His antibody and HRP-linked anti-rabbit IgG, read at 450 nm; Kd by nonlinear regression (One site - Total and nonspecific binding) with BSA or gelatin as nonspecific binding control
[2] = molecular target: fibrinogen from human plasma (human, UniProt P02671 36-866; P02675 45-491; P02679 27-453, Plasma-purified disulfide-linked (AalphaBbetagamma)2 hexamer, N-glycosylated on the beta and gamma chains, fibrinopeptides A and B retained. Limits are not printed. The alpha chain is taken as the mai); experiment: ELISA; putative ligands (5 µg/mL in carbonate-bicarbonate buffer, 50 µL) adsorbed on MaxiSorp plates O/N at 4 °C; blocked 1 h with 3% BSA or 1% gelatin in PBS; serial twofold dilutions of 6His-PilB (40 to 0.625 µg/mL) for 2 h at 37 °C; detected with anti-6His antibody and HRP-linked anti-rabbit IgG, read at 450 nm; Kd by nonlinear regression (One site - Total and nonspecific binding) with BSA or gelatin as …; details: both partners purified
Sequence of fibrinogen from human plasma (P02671 36-866, chain 1 of 3): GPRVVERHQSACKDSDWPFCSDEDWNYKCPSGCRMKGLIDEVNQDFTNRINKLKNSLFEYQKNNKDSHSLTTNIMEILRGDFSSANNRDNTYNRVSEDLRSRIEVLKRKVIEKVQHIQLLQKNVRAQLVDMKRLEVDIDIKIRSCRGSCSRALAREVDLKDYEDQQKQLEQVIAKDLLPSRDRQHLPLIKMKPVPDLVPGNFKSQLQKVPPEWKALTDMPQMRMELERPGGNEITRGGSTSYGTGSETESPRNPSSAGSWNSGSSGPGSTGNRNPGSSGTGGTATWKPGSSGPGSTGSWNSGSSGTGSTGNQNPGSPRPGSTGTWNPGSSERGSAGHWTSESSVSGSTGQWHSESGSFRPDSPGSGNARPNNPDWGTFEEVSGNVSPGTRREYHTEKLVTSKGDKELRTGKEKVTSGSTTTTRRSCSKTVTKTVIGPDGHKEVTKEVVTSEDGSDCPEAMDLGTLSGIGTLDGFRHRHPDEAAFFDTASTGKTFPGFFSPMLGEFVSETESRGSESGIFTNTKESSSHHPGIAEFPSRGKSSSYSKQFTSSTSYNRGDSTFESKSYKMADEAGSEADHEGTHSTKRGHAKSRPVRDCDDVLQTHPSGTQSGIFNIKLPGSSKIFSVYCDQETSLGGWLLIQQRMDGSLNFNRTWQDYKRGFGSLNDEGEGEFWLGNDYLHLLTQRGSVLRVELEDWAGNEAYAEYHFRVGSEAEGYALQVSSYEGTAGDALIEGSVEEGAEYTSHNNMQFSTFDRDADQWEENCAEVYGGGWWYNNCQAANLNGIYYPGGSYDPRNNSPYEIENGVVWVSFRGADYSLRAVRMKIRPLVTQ
Sequence of fibrinogen from human plasma (P02675 45-491, chain 2 of 3): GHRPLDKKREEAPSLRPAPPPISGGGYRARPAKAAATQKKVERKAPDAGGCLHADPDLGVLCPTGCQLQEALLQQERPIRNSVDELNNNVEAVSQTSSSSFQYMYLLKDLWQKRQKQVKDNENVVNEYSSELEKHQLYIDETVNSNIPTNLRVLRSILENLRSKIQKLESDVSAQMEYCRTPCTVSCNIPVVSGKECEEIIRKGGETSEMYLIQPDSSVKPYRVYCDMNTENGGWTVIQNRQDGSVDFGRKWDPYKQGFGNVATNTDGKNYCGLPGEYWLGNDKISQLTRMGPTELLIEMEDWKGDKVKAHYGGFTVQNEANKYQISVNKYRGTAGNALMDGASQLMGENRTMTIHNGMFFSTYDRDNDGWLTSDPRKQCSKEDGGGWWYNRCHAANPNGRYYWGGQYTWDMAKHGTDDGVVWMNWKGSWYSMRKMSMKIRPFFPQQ
Sequence of fibrinogen from human plasma (P02679 27-453, chain 3 of 3): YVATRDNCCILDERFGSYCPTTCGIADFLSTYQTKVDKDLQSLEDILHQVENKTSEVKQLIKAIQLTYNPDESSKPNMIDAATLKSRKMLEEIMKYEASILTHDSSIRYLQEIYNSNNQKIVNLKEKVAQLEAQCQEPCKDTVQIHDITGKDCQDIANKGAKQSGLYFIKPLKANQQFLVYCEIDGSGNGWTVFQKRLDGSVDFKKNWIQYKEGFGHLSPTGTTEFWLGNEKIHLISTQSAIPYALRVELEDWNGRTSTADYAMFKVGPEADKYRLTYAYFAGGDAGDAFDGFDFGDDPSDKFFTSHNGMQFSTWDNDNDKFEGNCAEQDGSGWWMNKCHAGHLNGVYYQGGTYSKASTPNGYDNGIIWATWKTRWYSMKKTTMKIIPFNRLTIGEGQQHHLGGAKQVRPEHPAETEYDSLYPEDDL

| Molecule | Kd [1] [µM] | Kd [2] [µM] |
| --- | --- | --- |
| 6His-PilB_(36-461) (from UniProt A0A0B7GP99 36-461) (domain or fragment) | 0.494 | – |
| PilBvWA (from UniProt A0A0B7GP99 192-461) (domain or fragment) | 0.997 | – |
| B1 | – | 0.337 |
| B2 | – | 0.865 |
